Substrate in this series: CC(=O)N[C@H]1[C@H](Oc2ccc3c(C)cc(=O)oc3c2)O[C@H](CO)[C@@H](O)[C@@H]1O
As to the kind of experiment: purified protein.

B1: human O-GlcNAcase (hOGA) (Homo sapiens) (protein)
chain: AAGGARRFLCGVVEGFYGRPWVMEQRKELFRRLQKWELNTYLYAPKDDYKHRMFWREMYSVEEAEQLMTLISAAREYEIEFIYAISPGLDITFSNPKEVSTLKRKLDQVSQFGCRSFALLFDDIDHNMCAADKEVFSSFAHAQVSITNEIYQYLGEPETFLFCPTEYCGTFCYPNVSQSPYLRTVGEKLLPGIEVLWTGPKVVSKEIPVESIEEVSKIIKRAPVIWDNIHANDYDQKRLFLGPYKGRSTELIPRLKGVLTNPNCEFEANYVAIHTLATWYKSNMNGVRKDVVMTDSEDSTVSIQIKLENEGSDEDIETDVLYSPQMALKLALTEWLQEFGVPHQYSSRQVAHSGAKASVVDGTPLVAAPSLNATTVVTTVYQEPIMSQGAALSGEPTTLTKEEEKKQPDEEPMDMVVEKQEETDHKNDNQILSEIVEAKMAEELKPMDTDKESIAESKSPEMSMQEDCISDIAPMQTDEQTNKEQFVPGPNEKPLYTAEPVTLEDLQLLADLFYLPYEHGPKGAQMLREFQWLRANSSVVSVNCKGKDSEKIEEWRSRAAKFEEMCGLVMGMFTRLSNCANRTILYDMYSYVWDIKSIMSMVKSFVQWLGCRSHSSAQFLIGDQEPWAFRGGLAGEFQRLLPIDGANDLFFQPPPLTPTSKVYTIRPYFPKDEASVYKICREMYDDGVGLPFQSQPDLIGDKLVGGLLSLSLDYCFVLEDEDGICGYALGTVDVTPFIKKCKISWIPFMQEKYTKPNGDKELSEAEKIMLSFHEEQEVLPETFLANFPSLIKMDIHKKVTDPSVAKSMMACLLSSLKANGSRGAFCEVRPDDKRILEFYSKLGCFEIAKMEGFPKDVVILGRSL
On to B1, for which the Km (commonly the concentration of substrate that gives half-maximal velocity) was 80 ± 6 µM.
